Experimental data from article PMC7968844.

Columns and labels:
[1] = CHX chase, Western blot, endogenous ERα; details: glycan lost; control: MCF7-WT cells, empty vector
[2] = FLAG pulldown, MS peptide reads; details: glycan lost; control: MCF7-WT cells
[3] = CHX chase, Western blot, MCF7-WT cells; details: glycan lost; control: ERα-WT in MCF7-WT cells
[4] = CHX chase, Western blot, GREB1-KO cells; details: glycan lost; control: ERα-WT in GREB1-KO cells
[5] = Western blot of ERα after GREB1 reconstitution; details: glycan gained; control: GREB1-KO cells + Vec

B1: ERα (estrogen receptor α): GREB1-KO (protein)
parent chain: MTMTLHTKASGMALLHQIQGNELEPLNRPQLKIPLERPLGEVYLDSSKPAVYNYPEGAAYEFNAAAAANAQVYGQTGLPYGPGSEAAAFGSNGLGGFPPLNSVSPSPLMLLHPPPQLSPFLQPHGQQVPYYLENEPSGYTVREAGPPAFYRPNSDNRRQGGRERLASTNDKGSMAMESAKETRYCAVCNDYASGYHYGVWSCEGCKAFFKRSIQGHNDYMCPATNQCTIDKNRRKSCQACRLRKCYEVGMMKGGIRKDRRGGRMLKHKRQRDDGEGRGEVGSAGDMRAANLWPSPLMIKRSKKNSLALSLTADQMVSALLDAEPPILYSEYDPTRPFSEASMMGLLTNLADRELVHMINWAKRVPGFVDLTLHDQVHLLECAWLEILMIGLVWRSMEHPGKLLFAPNLLLDRNQGKCVEGMVEIFDMLLATSSRFRMMNLQGEEFVCLKSIILLNSGVYTFLSSTLKSLEEKDHIHRVLDKITDTLIHLMAKAGLTLQQQHQRLAQLLLILSHIRHMSNKGMEHLYSMKCKNVVPLYDLLLEMLDAHRLHAPTSRGGASVEETDQSHLATAGSTSSHSLQKYYITGEAEGFPATV
- degradation_or_half_life [1]: decreases
- other: ubiquitin associated with ERα [2]: increases

B2: ERα (estrogen receptor α): ERα-2M (protein)
parent chain: B1 parent chain
- degradation_or_half_life [3]: decreases
- degradation_or_half_life [4]: no change

B3: ERα (estrogen receptor α): GT-WT (protein)
parent chain: B1 parent chain
- expression_or_secretion [5]: increases
